T1: Full length human CD98hc on CHO cells (human)
T1 construct: CHO cells stably overexpressing it; also called CHO-human CD98hc; CHO-huCD98hc
T1 chain: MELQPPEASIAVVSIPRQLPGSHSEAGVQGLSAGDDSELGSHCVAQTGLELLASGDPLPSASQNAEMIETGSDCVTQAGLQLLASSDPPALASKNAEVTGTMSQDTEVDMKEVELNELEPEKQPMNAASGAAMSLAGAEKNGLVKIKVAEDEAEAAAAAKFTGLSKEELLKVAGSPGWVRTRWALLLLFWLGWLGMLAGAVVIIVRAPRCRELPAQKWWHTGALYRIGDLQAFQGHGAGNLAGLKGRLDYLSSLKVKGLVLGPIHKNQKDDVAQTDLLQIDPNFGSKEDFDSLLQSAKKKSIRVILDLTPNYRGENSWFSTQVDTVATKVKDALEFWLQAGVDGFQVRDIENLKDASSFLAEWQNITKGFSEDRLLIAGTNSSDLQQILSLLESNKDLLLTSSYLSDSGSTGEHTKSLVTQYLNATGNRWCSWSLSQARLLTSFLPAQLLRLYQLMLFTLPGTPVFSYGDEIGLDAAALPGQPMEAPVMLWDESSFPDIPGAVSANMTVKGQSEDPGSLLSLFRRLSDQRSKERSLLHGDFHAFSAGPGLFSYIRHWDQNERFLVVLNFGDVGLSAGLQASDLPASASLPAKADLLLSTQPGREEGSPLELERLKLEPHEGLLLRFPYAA

T2: Full length mouse CD98hc on CHO cells (mouse, UniProt P10852 1-526)
T2 construct: CHO cells stably overexpressing it; also called CHO-mouse CD98hc; CHO-mCD98hc
T2 sequence: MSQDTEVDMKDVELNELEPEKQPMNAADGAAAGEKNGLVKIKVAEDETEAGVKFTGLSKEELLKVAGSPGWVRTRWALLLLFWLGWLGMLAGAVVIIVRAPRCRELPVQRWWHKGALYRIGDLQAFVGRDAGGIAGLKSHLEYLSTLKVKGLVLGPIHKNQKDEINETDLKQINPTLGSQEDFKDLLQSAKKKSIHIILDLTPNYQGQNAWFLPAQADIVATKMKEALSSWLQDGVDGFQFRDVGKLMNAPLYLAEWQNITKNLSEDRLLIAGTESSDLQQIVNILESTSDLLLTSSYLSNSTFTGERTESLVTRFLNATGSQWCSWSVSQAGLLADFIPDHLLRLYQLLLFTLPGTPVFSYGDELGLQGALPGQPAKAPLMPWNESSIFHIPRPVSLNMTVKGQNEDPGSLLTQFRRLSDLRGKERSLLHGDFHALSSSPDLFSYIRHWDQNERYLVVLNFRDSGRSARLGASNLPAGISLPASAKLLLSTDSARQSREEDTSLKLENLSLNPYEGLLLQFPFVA

T3: human CD98hc endogenously expressed on HCMEC/D3 cells (human)
T3 construct: human brain endothelial cell line
T3 chain: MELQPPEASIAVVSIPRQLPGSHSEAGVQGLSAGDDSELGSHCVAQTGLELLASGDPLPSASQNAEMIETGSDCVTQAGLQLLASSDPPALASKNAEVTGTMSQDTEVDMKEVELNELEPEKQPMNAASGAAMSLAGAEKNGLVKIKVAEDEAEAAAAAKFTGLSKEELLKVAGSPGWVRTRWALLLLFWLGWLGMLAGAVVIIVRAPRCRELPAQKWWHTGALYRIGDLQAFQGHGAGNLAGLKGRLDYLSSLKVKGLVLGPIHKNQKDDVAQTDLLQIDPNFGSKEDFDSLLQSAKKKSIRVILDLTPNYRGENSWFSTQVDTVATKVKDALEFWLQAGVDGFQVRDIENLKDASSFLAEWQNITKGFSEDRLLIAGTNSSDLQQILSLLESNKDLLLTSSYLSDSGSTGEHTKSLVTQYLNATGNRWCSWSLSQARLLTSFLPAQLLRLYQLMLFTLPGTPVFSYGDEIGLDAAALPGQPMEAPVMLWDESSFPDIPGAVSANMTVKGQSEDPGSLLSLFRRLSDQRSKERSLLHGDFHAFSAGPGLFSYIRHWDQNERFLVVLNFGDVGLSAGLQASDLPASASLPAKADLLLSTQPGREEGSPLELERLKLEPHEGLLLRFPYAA

T4: Cyno CD98hc ECD Avi-His (cynomolgus macaque, UniProt P08195 105-529 (human entry))
T4 construct: biotinylated on the Avi tag where captured on streptavidin; also called Cyno CD98-AVI-His; Cyno CD98hc-AVI-His
T4 chain: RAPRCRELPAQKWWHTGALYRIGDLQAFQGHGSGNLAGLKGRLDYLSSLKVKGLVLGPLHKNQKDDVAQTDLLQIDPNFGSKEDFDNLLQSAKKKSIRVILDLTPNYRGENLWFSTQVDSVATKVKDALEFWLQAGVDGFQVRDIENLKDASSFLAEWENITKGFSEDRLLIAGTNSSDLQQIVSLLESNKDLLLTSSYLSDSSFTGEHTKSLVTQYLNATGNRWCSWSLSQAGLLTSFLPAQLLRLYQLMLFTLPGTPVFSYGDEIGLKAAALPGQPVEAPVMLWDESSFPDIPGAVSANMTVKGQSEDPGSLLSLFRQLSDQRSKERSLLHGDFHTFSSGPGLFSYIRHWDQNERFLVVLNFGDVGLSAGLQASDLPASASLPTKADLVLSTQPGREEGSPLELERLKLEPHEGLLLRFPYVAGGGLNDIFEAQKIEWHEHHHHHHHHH


How the values were obtained:
[1] = biological target: T1, Full length human CD98hc on CHO cells; experiment: FACS, hybridoma supernatant
[2] = biological target: T2, Full length mouse CD98hc on CHO cells; experiment: FACS, hybridoma supernatant
[3] = biological target: T3, human CD98hc endogenously expressed on …; experiment: FACS, hybridoma supernatant
Cyno CD98hc ECD Avi-His = biological target: T4, Cyno CD98hc ECD Avi-His; experiment: ELISA, hybridoma supernatant
Protocol: (§1) Briefly, 96-well polystyrene plates were coated with 5 μg/ml of streptavidin (Thermo Fisher, Cat #PI21125) in coating buffer (0.05M carbonate buffer, pH 9.6, Sigma, Cat #C3041) overnight at 4° C. Coated plates were then blocked with ELISA diluent (PBS+0.5% BSA+0.05% Tween20) for one hour. Blocking buffer was removed and human, cyno, or mouse Avi-His-tagged CD98hc and Avi-His-tagged human TfR polypeptides were added at 1 μg/ml in ELISA diluent and captured for 1 hour at room temperature. After washing three times with 300 μl of PBST (PBS+0.05% Tween20, Thermo 28352), the hybridoma cell culture supernatants or 1 μg/ml of commercially available purified mouse anti-human CD98hc monoclonal antibody (Sigma Aldrich, Cat #SAB 4700503) and rat anti-mouse CD98hc antibody (Bio-Rad Laboratories, Hercules, CA, Cat #MCA2684) were added (50 μl/well) to each well. After 30 minutes of incubation at room temperature, the plates were washed three times with 300 μl of PBST. […] After a final set of washes (3×300 μl in PBST), 50 μl/well of BioFx TMB substrate (Surmodics, Eden Praire, MN, Cat #TMBW-1000-01) was added to the wells. The reaction was then quenched after 5-10 mins with 50 μl/well of 2N sulfuric acid. The plates were read for absorbance at 450 nm on a SpectraMax M5 (Molecular Devices, Sunnyvale, CA) using SoftMax Pro software.

[4] = biological target: T5, Human TfR-AVI-His (control) (human, UniProt P02786 89-760); experiment: ELISA, hybridoma supernatant
T5 construct: control protein; also called Avi-His-tagged human TfR; human transferrin receptor
T5 sequence (P02786 89-760 limits assumed): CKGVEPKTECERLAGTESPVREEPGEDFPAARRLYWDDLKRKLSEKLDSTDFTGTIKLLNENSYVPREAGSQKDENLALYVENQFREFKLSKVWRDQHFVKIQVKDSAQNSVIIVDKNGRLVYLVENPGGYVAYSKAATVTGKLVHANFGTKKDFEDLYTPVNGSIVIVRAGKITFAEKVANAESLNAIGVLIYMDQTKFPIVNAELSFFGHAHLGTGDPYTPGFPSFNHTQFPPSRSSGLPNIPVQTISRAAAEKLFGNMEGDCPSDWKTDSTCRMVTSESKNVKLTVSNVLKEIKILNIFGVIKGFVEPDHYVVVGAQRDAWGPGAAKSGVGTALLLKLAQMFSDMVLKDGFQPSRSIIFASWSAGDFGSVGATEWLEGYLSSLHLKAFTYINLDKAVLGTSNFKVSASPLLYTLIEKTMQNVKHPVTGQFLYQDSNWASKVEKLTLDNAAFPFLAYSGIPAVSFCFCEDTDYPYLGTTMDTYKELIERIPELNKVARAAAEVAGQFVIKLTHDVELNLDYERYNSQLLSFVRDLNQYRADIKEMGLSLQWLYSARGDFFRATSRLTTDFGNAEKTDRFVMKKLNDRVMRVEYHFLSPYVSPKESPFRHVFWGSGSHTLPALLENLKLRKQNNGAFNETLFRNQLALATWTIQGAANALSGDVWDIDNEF
Protocol: as §1

Binder	MFI ratio over secondary antibody [1]	MFI ratio over secondary antibody [2]	MFI ratio over secondary antibody [3]	OD450 (Cyno CD98hc ECD Avi-His)	OD450 [4]
CD98HC.04.011 (antibody, V domains shown, hybridoma IgG) VH: DVQLQESGPDLVKPSQSLSLTCSVTVYSFTSVYSWHWIRQFPGNKLEWMGYIHDSGTTNYNPSLKSRISVTRDTSKNQFFLQLNSVTTEDTATYYCARGRPYGYDGFAYWGQGTLVTVSA VL: DIQMTQSSSYLSVSLGDRVTITCKASDHINNWLAWYQQKPGNAPRLLITGAVNLETGVPSRFSGSGSGKDYTLSITSLQTEDVATYYCQQYWSIPRTFGGGTNLEIK	31	1.1	192	1.76	0.0705
CD98HC.03.031 (antibody, V domains shown, hybridoma IgG) VH: QVQLQQSGAELVRPGVSVKISCKASGYTFTDYAMHWVKQSHAKSLEWIGVISTYYGDTTYNQKFKDKATMTVDKSSSTAYLELARLTSEDSAIYYCARVWLLSYAMDNWGQGTSVTVSS VL: DIVMTQSQRFMSTSVGDGVRITCKASQNVRTAVAWYQQKPGQSPKALINLAPNRHTGVPDRFTARGSGTDFTLTISNVQSEDLADYFCLQHWNYPLTFGAGTKLELK	38.9	1.2	198	1.48	0.0873
CD98HC.04.006 (antibody, V domains shown, hybridoma IgG) VH: EVNLVESGGDLVQPGGSLRLSCATSGFTFTDYFMSWVRQPPGKALEWLGFIRNKAYGYTTEYSASVKGRFTISRDNSQSIFYLQMNTLRLEDSATYYCARGPFISTAPFAYWGQGTLVTVSA VL: DIVMSQSPSSLAVSVGETVTMSCKSSQSLLYSSNQKNYLAWYQQKPGQSPKLLIYWGSTRESGVPDRFTGSGSGTDFTLTISSVKAEDLAVYYCQHYYGYPWTFGGGTKLEIK	39	1.1	197	1.71	0.129
CD98HC.04.003 (antibody, V domains shown, hybridoma IgG) VH: QVQLQQSGAELAKPGASLKMSCKASGYTFTDYYIHWVKQRPGQDLEWIGYINPNSAYTDSNQKFKDKATLTADKSSNTAYMQLSSLTSEDSAVYYCARKGHFYAPSFAYWGQGTLVTVSA VL: DIQMTQTTSSLSASLGDRVTISCRASQDISNYLNWYQQKPDGTVKLLIYYTSRLHSGVPSRFSGSGSGADYSLTISNLQQEDIATYFCQQGDTLPYTFGGGTKLEIE	3.2	1.1	13.8	2.05	0.0601
CD98HC.04.012 (antibody, V domains shown, hybridoma IgG) VH: QVQLQQSGADLVRPGDSVKISCKGSGYTFTDNTLHWVKQSHAKSLEWIGVISPYYGDASYNQKFKGKATMTVDKSSSTAYMELARLTSEDSAIYYCARVGGRLRLGYYFDHWGQGTTLTVSS VL: NIMMTQSPSSLAVSAGEKVTMNCKSSQSVLSSSNQKNYLAWYQQKPGQSPKLLIYWASTRESGVPARFTGSGSGTDFSLTITSVQAEDLAVYYCLQYLSSYTFGGGTKLEIK	28.3	1.1	155	1.73	0.074

The next lines start with the values.

MFI ratio over secondary antibody [1]	MFI ratio over secondary antibody [2]	MFI ratio over secondary antibody [3]	OD450 (Cyno CD98hc ECD Avi-His)	OD450 [4]	Binder
18.5	1.1	131	1.42	0.0743	CD98HC.04.009 (antibody, V domains shown, hybridoma IgG) VH: QVQLKESGPGLVAPSQSLSITCTVSGFSLTSYGVHWVRQPPGKGLEWLGVIWAGGSTYYNSALMSRLSISKDNAKSQVLLKMSSLQTDDTAMYYCARDNYGGVYLDVWGAGTTVTVSS VL: ENVLTQSPASMSASPGEKVTMTCRASSSVSSSYLHWYQQKSGASPKLWIYSTSNLASGVPARFSGSGSGTSYSLTISSVEAEDAATYYCQQYSGYPLTFGSGTKLEIK
50.3	1.1	335	1.97	0.0717	CD98HC.04.018 (antibody, V domains shown, hybridoma IgG) VH: QIQLVQSGPELKKPGETVKISCKASGYTFRNYGMNWVKQAPGKGLKWMGWINTYTGEPTYAEDFKGRFAFSLETSASTAYLQINKLKNEDEATYFCARGEAHWYFDVWGAGTTVTVSS VL: QIVLTQSPAIMSASLGERVTMTCTASSSVSSSYLYWYQQKPGSSPKLWIYSIFNLASGVPARFSGSGSGTSYSLTISSMEAEDAATYYCHQYHRSPPTFGGGTKLEIK
28.5	1	233	1.69	0.073	CD98HC.03.002 (antibody, V domains shown, hybridoma IgG) VH: DVQLVESGGGLVQPGGSRKLSCAASGFTFSTFGMHWVRQAPEKGLEWVAYISGGSTNIYYADTVKGRFTISRDNPKNTLFLQMTSLRSEDTAMYYCARETTLLATNFDYWGQGTTLTVSS VL: DIQMTQTTSSLSASLGDRVTISCRASQDISNYLNWYQQKPDGTVKLLIYYTSRLHSGVPSRFSGSGSGTDYSLTISNLEQEDIATYFCQQGSTLPRTFGGGTKLEIK
21.2	1.1	124	2.04	0.0667	CD98HC.04.013 (antibody, V domains shown, hybridoma IgG) VH: EVQLVESGGDLGMPGGSLKLSCAASGFALSGYDMSWVRQTPDKRLEWVAYLSSGGGSTYYPYTVKGRFTISRDNAQNTLYLQMSSLKSEDTAIYYCARHSEVRPWFGYWGQGTLVTVSA VL: DIVMSQSPSSLAVSVGEKVTLTCKSSQSLLYSGNQKNYLAWYQQNPGQSPKLLIYWASTRESGVPDRFTGSGSGTDFTLTISSVKAEDLAVYYCQQYYTYPPTFGAGTKLGLK
26.5	1.1	151	1.97	0.102	CD98HC.04.010 (antibody, V domains shown, hybridoma IgG) VH: QVQLQQSGAELMKPGASVKISCKATGYTFSTYWIEWVKQRPGHGLEWIGEILPGSGTTTYNEKFKGKATFTADTSSNTAYMQLSSLTSEDSAVYYCARRTVYYRYEGIDYWGQGTTLTVSS VL: QIVLTQSPAIMSASPGEKVTITCSASSSVSYMFWFQQRPGTSPKLWIYTTSNLASGVPARFSGSGSGTSYSLTISRMEAEDAATYYCQQKNNYPFTFGSGTKLEIK

Source: patent US20250270341A1 (Alector, published 2025)
